# Values quoted from earlier work as cited in article PMC5264612.
# How the values were obtained:
# MftC = MftC (UniProt P9WJ78)
# MftA = MftA (UniProt P9WJ80)
# Chain of UniProt P9WJ80 (P9WJ80 whole entry): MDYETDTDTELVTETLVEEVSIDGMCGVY
# Chain of UniProt P9WJ78 (P9WJ78 whole entry): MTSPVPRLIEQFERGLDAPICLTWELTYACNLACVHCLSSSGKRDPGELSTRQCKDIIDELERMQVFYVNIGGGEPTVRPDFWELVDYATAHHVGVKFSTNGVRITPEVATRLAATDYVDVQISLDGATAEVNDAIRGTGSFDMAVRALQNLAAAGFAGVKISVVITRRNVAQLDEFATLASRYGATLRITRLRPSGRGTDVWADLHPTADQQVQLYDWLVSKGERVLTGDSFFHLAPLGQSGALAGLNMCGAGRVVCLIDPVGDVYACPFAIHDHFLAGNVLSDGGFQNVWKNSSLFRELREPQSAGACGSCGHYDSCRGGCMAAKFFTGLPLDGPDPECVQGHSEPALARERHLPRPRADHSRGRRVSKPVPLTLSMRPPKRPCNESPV
substance,measurement,setting,value
MftB (from UniProt A0PM48),Kd,MftC,2000 nM
same,Kd,MftA,120 nM
